Assay results: patent US20250296994A1 (SYSMEX, published 2025)

Assays:
[1] = biological target: T1, human Crtac1A (human, UniProt Q9NQ79 28-661); assay: immunoprecipitation from human CSF and serum, then immunoblotting (Wes)
T1 construct: Recombinant protein (IB control sample) or native protein in human CSF and serum; also called rCrtac1A
T1 sequence: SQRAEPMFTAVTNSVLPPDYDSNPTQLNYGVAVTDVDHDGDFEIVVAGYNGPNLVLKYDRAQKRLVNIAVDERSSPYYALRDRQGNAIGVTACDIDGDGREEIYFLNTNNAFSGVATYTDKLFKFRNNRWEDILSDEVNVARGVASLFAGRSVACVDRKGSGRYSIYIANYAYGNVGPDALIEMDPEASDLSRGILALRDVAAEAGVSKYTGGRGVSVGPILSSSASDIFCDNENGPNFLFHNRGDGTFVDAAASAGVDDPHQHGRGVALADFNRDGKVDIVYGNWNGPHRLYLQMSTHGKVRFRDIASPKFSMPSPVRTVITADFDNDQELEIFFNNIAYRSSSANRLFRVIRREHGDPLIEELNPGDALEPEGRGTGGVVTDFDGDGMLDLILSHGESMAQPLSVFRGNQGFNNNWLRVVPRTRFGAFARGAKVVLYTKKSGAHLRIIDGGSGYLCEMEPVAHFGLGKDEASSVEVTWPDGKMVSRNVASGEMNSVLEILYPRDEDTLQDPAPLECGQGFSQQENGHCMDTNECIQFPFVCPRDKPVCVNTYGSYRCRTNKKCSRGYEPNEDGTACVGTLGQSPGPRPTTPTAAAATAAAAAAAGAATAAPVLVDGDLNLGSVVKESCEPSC
Description: For human CSF and human serum, immunoprecipitation using a monoclonal antibody purified from the culture supernatant of hybridomas of clones 1B4 and 15C2 was performed, and IB analysis by Wes was performed. For comparison, immunoprecipitation (IP) using an anti-hCrtac1 antibody (RD) and IB analysis using an anti-rat LOTUS antibody (ITM, 45-12C) were performed.
As a sample, CSF (300 μL) and serum (500 μL) were used per antibody. Each sample and protein G sepharose were mixed and rotated at 4° C. for 1 hour to remove contaminants that non-specifically bind to protein G from each sample in advance. Protein G solid phase-treated magnetic particles (60 μL, Veritas, Dynabeads (registered trademark) Protein G) were dispensed into 1.5-mL tubes, and washed twice with dilution buffer III (500 μL, 0.02% Tween (registered trademark) 20/PBS (pH 7.4)). Magnetic collection was performed to remove the supernatant, and each antibody (24 μg) and the above dilution buffer III (200 μL) were added to the magnetic particles. The tube was stirred at room temperature for 1 hour, and then collected to remove the supernatant. The magnetic particles were washed five times with the above dilution buffer III (300 μL), and then collected to remove supernatant. Each sample from which impurities were removed was added to the magnetic particles, and the tube was stirred at room temperature for 5 hours. […]

[2] = biological target: T2, recombinant Crtac1B fragment #7 (negative control) (human, UniProt Q9NQ79 28-606); assay: antigen immobilized ELISA, hybridoma culture supernatant, color development at 655 nm same as plate without antigen
T2 construct: also called fCrtac1B (1-606)
T2 sequence: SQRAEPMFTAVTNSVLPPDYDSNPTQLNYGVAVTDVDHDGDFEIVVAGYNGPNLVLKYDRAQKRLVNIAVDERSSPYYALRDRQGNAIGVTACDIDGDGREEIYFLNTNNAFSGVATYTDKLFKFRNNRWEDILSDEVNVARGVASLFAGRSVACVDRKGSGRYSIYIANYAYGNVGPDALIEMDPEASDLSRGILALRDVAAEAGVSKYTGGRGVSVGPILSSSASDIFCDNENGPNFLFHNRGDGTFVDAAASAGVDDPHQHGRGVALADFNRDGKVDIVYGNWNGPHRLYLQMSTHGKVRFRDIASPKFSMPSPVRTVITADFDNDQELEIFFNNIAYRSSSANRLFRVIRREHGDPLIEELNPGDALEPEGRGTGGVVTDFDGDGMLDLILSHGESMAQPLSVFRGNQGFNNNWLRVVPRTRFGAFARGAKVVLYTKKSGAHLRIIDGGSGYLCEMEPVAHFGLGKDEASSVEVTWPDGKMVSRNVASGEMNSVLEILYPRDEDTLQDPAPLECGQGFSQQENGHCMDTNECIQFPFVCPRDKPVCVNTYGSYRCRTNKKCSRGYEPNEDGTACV
Description: (§1) A positive antigen (50 μL) and a negative control (50 μL) were added to each well of a 96 well plate, respectively. Then, the plate was incubated at 4° C. overnight, and the positive antigen and the negative control were immobilized in the well to obtain an antigen immobilized plate. Each well was washed twice with a washing solution (250 μL, 0.05% Tween (registered trademark) 20/20 mM potassium phosphate buffer (pH 7.4), 150 mM NaCl). To each well was added a blocking buffer (250 μL, 5% skim milk/20 mM potassium phosphate buffer (pH 7.4), 150 mM NaCl), and blocked at room temperature for 90 minutes. Culture supernatant (50 μL) of each hybridoma selected by primary screening was added to each well, and the cells were incubated at 37° C. for 1 hour. Each well was washed three times with a washing solution (250 μL). The HRP-labeled anti-mouse IgG antibody (MBL, product number 330) was diluted 1:1,000 with dilution buffer II (1% skim milk/20 mM potassium phosphate buffer (pH 7.4), 150 mM NaCl). A solution (50 μL) of this labeled antibody was added to each well, and the well was incubated at 37° C. for 1 hour. Each well was washed five times with a washing solution (250 μL). Chemical chromogenic substrate solutions (Bio-Rad, TMB Peroxidase EIA Substrate Kit) were added to respective wells at 50 μL, and the plate was allowed to stand at room temperature under shading for 30 minutes. The plate was set in a microplate reader (Thermo Fisher Scientific, Varioskan (registered trademark) Flash), and the color development intensity at 655 nm was measured for each well.
(§2) Reactivity of the monoclonal antibody contained in the culture supernatant of the hybridomas of clones 1B4 and 15C2 to the antigen was confirmed by ELISA using the 7 recombinant Crtac1B fragments described above. A specific operation was the same as that of the antigen immobilized ELISA method of Example 1. For comparison, ELISA was performed in the same manner using a 96 well plate in which no antigen was immobilized.
(§3) In addition, as to these monoclonal antibodies, the color development intensity when the recombinant Crtac1B fragments of #6 and #7 were used was substantially the same as that when a plate without immobilizing the antigen was used.

[3] = biological target: T3, recombinant Crtac1B fragment #6 (human, UniProt Q9NQ79 28-606); assay: as above
T3 construct: also called fCrtac1B (1-607)
T3 sequence: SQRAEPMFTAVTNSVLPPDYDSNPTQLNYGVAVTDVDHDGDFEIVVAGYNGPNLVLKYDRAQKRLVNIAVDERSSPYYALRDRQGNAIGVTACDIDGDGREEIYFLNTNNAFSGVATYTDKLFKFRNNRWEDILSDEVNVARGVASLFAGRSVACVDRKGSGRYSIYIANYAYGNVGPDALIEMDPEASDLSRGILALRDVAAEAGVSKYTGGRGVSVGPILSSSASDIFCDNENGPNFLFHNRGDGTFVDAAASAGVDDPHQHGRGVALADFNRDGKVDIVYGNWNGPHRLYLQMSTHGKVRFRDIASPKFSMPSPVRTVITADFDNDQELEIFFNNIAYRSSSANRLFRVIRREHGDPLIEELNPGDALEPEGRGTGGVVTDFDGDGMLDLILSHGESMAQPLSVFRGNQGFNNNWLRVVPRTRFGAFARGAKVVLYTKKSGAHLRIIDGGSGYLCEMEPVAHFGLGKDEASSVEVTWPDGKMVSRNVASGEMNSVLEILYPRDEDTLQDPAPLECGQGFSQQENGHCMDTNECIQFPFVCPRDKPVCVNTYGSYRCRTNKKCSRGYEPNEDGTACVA
Description: as §1, §2, §3

Measured: binding result

B1: monoclonal antibody derived from the hybridoma of clone 1B4 (antibody, mouse IgG1, kappa, V domains shown)
VH: EVQLQQFGAELVKPGASVKISCKASGYTFTDYNMDWVKQSHGKSLEWIGDINPNYDSSSYNQKFKGKATLTVDKSSSTAYMELRSLTSEDTAVYYCTRSGGTYWGQGTLVTVSA
VL: DIQMNQSPSSLSASLGDTITITCHASQNINVWLSWYQQKPGNIPKLLIYKASNLHTGVPSRFSGSGSGTGFSLTISSLQPEDIATYYCQQAQSYPRTFGGGTKLEIKR
notes: It is kept apart because the two clones were tested separately; Mouse IgG1; Leader ranges were derived as for m1
no binding: all assays above
